In patent US20190225669A1 (ACCELERON PHARMA, published 2019):
Read-outs that look alike come from different tables or passages of the source. Each block holds one binder with its values, some of them ahead of it.

What was measured:
[1] = molecular target: T1, activin B (UniProt P09529 293-407); assay: Biacore SPR
T1 sequence (looked up): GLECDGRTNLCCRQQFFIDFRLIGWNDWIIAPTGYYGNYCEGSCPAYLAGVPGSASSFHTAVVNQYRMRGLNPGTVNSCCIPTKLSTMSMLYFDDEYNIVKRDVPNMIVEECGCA
Experimental: (§1) A Biacore™-based binding assay was used to compare ligand binding selectivity of the BMPRII-Fc:ALK2-Fc heterodimeric complex described above with that of BMPRII-Fc and ALK2-Fc homodimeric complexes. […] Ligands were injected and allowed to flow over the captured receptor protein.

[2] = molecular target: T2, BMP5 (UniProt P22003 317-454, limits assumed); assay: Biacore SPR
T2 sequence (looked up): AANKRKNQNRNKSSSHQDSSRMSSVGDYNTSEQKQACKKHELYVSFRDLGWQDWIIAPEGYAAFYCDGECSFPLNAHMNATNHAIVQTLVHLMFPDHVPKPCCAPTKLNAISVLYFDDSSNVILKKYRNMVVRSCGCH
Experimental: as §1

[3] = molecular target: T3, BMP7 (UniProt P18075 293-431); assay: Biacore SPR
T3 sequence (looked up): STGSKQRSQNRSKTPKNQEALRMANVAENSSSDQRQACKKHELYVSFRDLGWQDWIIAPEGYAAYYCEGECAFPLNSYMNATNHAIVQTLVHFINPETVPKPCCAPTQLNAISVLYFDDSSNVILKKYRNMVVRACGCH
Experimental: as §1

[4] = molecular target: T4, BMP9 (UniProt Q9UK05 320-429); assay: Biacore SPR
T4 construct: also called GDF2
T4 sequence (looked up): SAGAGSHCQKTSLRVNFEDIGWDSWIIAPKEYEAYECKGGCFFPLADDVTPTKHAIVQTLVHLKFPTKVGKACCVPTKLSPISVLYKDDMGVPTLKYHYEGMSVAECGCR
Experimental: as §1

[5] = molecular target: T5, BMP10 (UniProt O95393 317-424); assay: Biacore SPR
T5 sequence (looked up): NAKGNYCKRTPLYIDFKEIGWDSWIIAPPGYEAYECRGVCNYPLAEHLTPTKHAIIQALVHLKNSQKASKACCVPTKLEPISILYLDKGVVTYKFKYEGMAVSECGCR
Experimental: as §1

[6] = molecular target: T6, BMP15 (UniProt O95972 268-392); assay: Biacore SPR
T6 construct: also called GDF9b
T6 sequence (looked up): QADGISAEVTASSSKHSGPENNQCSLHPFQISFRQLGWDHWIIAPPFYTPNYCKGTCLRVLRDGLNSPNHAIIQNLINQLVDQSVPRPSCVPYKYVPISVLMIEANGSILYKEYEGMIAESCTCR
Experimental: as §1

[7] = molecular target: T7, activin A (UniProt P08476 311-426); assay: Biacore SPR
T7 sequence (looked up): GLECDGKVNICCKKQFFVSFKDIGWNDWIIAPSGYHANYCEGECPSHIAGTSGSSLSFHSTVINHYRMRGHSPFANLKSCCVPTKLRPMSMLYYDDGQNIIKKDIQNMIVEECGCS
Experimental: (§2) Ligands were injected and allowed to flow over the captured receptor protein.

[8] = molecular target: T1, activin B; assay: Biacore SPR; remark: listed apart in the source
Experimental: as §2

[9] = molecular target: T8, BMP6 (UniProt P22004 382-513, limits assumed); assay: Biacore SPR
T8 sequence (looked up): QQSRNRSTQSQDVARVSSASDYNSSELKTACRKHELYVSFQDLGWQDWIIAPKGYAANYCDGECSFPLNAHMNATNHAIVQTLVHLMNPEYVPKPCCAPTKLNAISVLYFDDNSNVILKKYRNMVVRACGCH
Experimental: as §2

[10] = molecular target: T5, BMP10; assay: Biacore SPR; remark: listed apart in the source
Experimental: as §2

[11] = molecular target: T9, GDF3 (UniProt Q9NR23 251-364); assay: Biacore SPR
T9 sequence (looked up): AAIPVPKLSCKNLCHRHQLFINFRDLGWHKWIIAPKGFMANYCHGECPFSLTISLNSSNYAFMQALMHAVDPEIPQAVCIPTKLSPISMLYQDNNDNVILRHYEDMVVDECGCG
Experimental: as §2

[12] = molecular target: T10, GDF8 (UniProt O14793 267-375); assay: Biacore SPR
T10 construct: also called myostatin
T10 sequence (looked up): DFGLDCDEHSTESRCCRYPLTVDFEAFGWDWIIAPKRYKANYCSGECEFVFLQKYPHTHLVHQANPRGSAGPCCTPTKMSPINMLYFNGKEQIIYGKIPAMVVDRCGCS
Experimental: as §2

[13] = molecular target: T11, GDF11 (UniProt O95390 299-407); assay: Biacore SPR
T11 construct: also called BMP11
T11 sequence (looked up): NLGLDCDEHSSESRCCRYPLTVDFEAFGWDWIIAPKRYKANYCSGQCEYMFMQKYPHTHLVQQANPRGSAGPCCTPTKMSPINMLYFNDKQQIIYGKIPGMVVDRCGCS
Experimental: as §2

[14] = molecular target: T4, BMP9; assay: Biacore SPR; kinetics indeterminate (transient)
Experimental: as §2

[15] = molecular target: T7, activin A; assay: Biacore SPR; remark: listed apart in the source
Experimental: as §2

[16] = molecular target: T1, activin B; assay: Biacore SPR; remark: listed apart in the source
Experimental: as §2

[17] = molecular target: T8, BMP6; assay: Biacore SPR; remark: listed apart in the source
Experimental: as §2

[18] = molecular target: T5, BMP10; assay: Biacore SPR; remark: listed apart in the source
Experimental: as §2

[19] = molecular target: T9, GDF3; assay: Biacore SPR; remark: listed apart in the source
Experimental: as §2

[20] = molecular target: T10, GDF8; assay: Biacore SPR; remark: listed apart in the source
Experimental: as §2

[21] = molecular target: T11, GDF11; assay: Biacore SPR; remark: listed apart in the source
Experimental: as §2

Kd [1]: 5.2 nM | koff [1]: 0.0031 s⁻¹ | kon [1]: 590000 M⁻¹ s⁻¹ | Kd [2]: 2.8 nM | koff [2]: 0.005 s⁻¹ | kon [2]: 1.8e+06 M⁻¹ s⁻¹ | Kd [3]: 0.76 nM | koff [3]: 0.012 s⁻¹ | kon [3]: 1.5e+07 M⁻¹ s⁻¹ | Kd [4]: 0.5 nM | koff [4]: 0.0051 s⁻¹ | kon [4]: 1e+07 M⁻¹ s⁻¹ | Kd [5]: 0.3 nM | koff [5]: 0.034 s⁻¹ | kon [5]: 1.1e+08 M⁻¹ s⁻¹ | Kd [6]: 1.1 nM | koff [6]: 0.011 s⁻¹ | kon [6]: 9.6e+06 M⁻¹ s⁻¹
B1: BMPRII-Fc:ALK2-Fc heterodimer (Fc fusion)
chain 1: SQNQERLCAFKDPYQQDLGIGESRISHENGTILCSKGSTCYGLWEKSKGDINLVKQGCWSHIGDPQECHYEECVVTTTPPSIQNGTYRFCCCSTDLCNVNFTENFPPPDTTPLSPPHSFNRDETGGGTHTCPPCPAPELLGGPSVFLFPPKPKDTLMISRTPEVTCVVVDVSHEDPEVKFNWYVDGVEVHNAKTKPREEQYNSTYRVVSVLTVLHQDWLNGKEYKCKVSNKALPAPIEKTISKAKGQPREPQVYTLPPSRKEMTKNQVSLTCLVKGFYPSDIAVEWESNGQPENNYKTTPPVLKSDGSFFLYSKLTVDKSRWQQGNVFSCSVMHEALHNHYTQKSLSLSPGK
chain 2: MEDEKPKVNPKLYMCVCEGLSCGNEDHCEGQQCFSSLSINDGFHVYQKGCFQVYEQGKMTCKTPPSPGQAVECCQGDWCNRNITAQLPTKGKSFPGTQNFHLETGGGTHTCPPCPAPELLGGPSVFLFPPKPKDTLMISRTPEVTCVVVDVSHEDPEVKFNWYVDGVEVHNAKTKPREEQYNSTYRVVSVLTVLHQDWLNGKEYKCKVSNKALPAPIEKTISKAKGQPREPQVYTLPPSREEMTKNQVSLTCLVKGFYPSDIAVEWESNGQPENNYDTTPPVLDSDGSFFLYSDLTVDKSRWQQGNVFSCSVMHEALHNHYTQKSLSLSPG
notes: C-terminal Lys optional; also called BMPRII-Fc:ALK2-Fc heterodimeric complex

Kd [7]: 0.012 nM | koff [7]: 0.00015 s⁻¹ | kon [7]: 1.3e+07 M⁻¹ s⁻¹ | Kd [8]: 0.006 nM | koff [8]: 4e-05 s⁻¹ | kon [8]: 7.1e+06 M⁻¹ s⁻¹ | Kd [9]: 2.7 nM | koff [9]: 0.0055 s⁻¹ | kon [9]: 2e+06 M⁻¹ s⁻¹ | Kd [10]: 0.074 nM | koff [10]: 0.0041 s⁻¹ | kon [10]: 5.6e+07 M⁻¹ s⁻¹ | Kd [11]: 4.9 nM | koff [11]: 0.017 s⁻¹ | kon [11]: 3.4e+06 M⁻¹ s⁻¹ | Kd [12]: 0.55 nM | koff [12]: 0.00021 s⁻¹ | kon [12]: 390000 M⁻¹ s⁻¹ | Kd [13]: 0.003 nM | koff [13]: 0.00011 s⁻¹ | kon [13]: 3.8e+07 M⁻¹ s⁻¹ | Kd [14]: 3.4 nM
B2: ActRIIB-Fc:ALK4-Fc heterodimer (Fc fusion)
chain 1: GRGEAETRECIYYNANWELERTNQSGLERCEGEQDKRLHCYASWRNSSGTIELVKKGCWLDDFNCYDRQECVATEENPQVYFCCCEGNFCNERFTHLPEAGGPEVTYEPPPTAPTGGGTHTCPPCPAPELLGGPSVFLFPPKPKDTLMISRTPEVTCVVVDVSHEDPEVKFNWYVDGVEVHNAKTKPREEQYNSTYRVVSVLTVLHQDWLNGKEYKCKVSNKALPAPIEKTISKAKGQPREPQVYTLPPSRKEMTKNQVSLTCLVKGFYPSDIAVEWESNGQPENNYKTTPPVLKSDGSFFLYSKLTVDKSRWQQGNVFSCSVMHEALHNHYTQKSLSLSPGK
chain 2: SGPRGVQALLCACTSCLQANYTCETDGACMVSIFNLDGMEHHVRTCIPKVELVPAGKPFYCLSSEDLRNTHCCYTDYCNRIDLRVPSGHLKEPEHPSMWGPVETGGGTHTCPPCPAPELLGGPSVFLFPPKPKDTLMISRTPEVTCVVVDVSHEDPEVKFNWYVDGVEVHNAKTKPREEQYNSTYRVVSVLTVLHQDWLNGKEYKCKVSNKALPAPIEKTISKAKGQPREPQVYTLPPSREEMTKNQVSLTCLVKGFYPSDIAVEWESNGQPENNYDTTPPVLDSDGSFFLYSDLTVDKSRWQQGNVFSCSVMHEALHNHYTQKSLSLSPG
notes: C-terminal Lys optional; also called ActRIIB-Fc:ALK4-Fc heterodimeric complex; ActRIIB-Fc:ALK4-Fc heteromeric complex

Kd [15]: 0.046 nM | koff [15]: 0.0016 s⁻¹ | kon [15]: 3.6e+07 M⁻¹ s⁻¹ | Kd [16]: 0.079 nM | koff [16]: 0.00031 s⁻¹ | kon [16]: 3.9e+06 M⁻¹ s⁻¹ | Kd [17]: 1.7 nM | koff [17]: 0.015 s⁻¹ | kon [17]: 9.3e+06 M⁻¹ s⁻¹ | Kd [18]: 0.15 nM | koff [18]: 0.0022 s⁻¹ | kon [18]: 2.3e+07 M⁻¹ s⁻¹ | Kd [19]: 8.5 nM | koff [19]: 0.0097 s⁻¹ | kon [19]: 1.1e+06 M⁻¹ s⁻¹ | Kd [20]: 0.49 nM | koff [20]: 0.00052 s⁻¹ | kon [20]: 1.1e+06 M⁻¹ s⁻¹ | Kd [21]: 0.2 nM | koff [21]: 0.00046 s⁻¹ | kon [21]: 2.3e+06 M⁻¹ s⁻¹ | Kd [14]: > 6.6 nM
B3: ActRIIB-Fc:ALK5-Fc heterodimer (Fc fusion)
chain 1: GRGEAETRECIYYNANWELERTNQSGLERCEGEQDKRLHCYASWRNSSGTIELVKKGCWLDDFNCYDRQECVATEENPQVYFCCCEGNFCNERFTHLPEAGGPEVTYEPPPTAPTGGGTHTCPPCPAPELLGGPSVFLFPPKPKDTLMISRTPEVTCVVVDVSHEDPEVKFNWYVDGVEVHNAKTKPREEQYNSTYRVVSVLTVLHQDWLNGKEYKCKVSNKALPAPIEKTISKAKGQPREPQVYTLPPSRKEMTKNQVSLTCLVKGFYPSDIAVEWESNGQPENNYKTTPPVLKSDGSFFLYSKLTVDKSRWQQGNVFSCSVMHEALHNHYTQKSLSLSPGK
chain 2: ALLPGATALQCFCHLCTKDNFTCVTDGLCFVSVTETTDKVIHNSMCIAEIDLIPRDRPFVCAPSSKTGSVTTTYCCNQDHCNKIELPTTVKSSPGLGPVETGGGTHTCPPCPAPELLGGPSVFLFPPKPKDTLMISRTPEVTCVVVDVSHEDPEVKFNWYVDGVEVHNAKTKPREEQYNSTYRVVSVLTVLHQDWLNGKEYKCKVSNKALPAPIEKTISKAKGQPREPQVYTLPPSREEMTKNQVSLTCLVKGFYPSDIAVEWESNGQPENNYDTTPPVLDSDGSFFLYSDLTVDKSRWQQGNVFSCSVMHEALHNHYTQKSLSLSPG
notes: C-terminal Lys optional; also called ActRIIB-Fc:ALK5-Fc heterodimeric complex
